# Assay results: PMC3965549, “Evidence for LINC1-SUN Associations at the Plant Nuclear Periphery” (PLoS ONE, 2014)
# T1: AtLINC1-YFP (Arabidopsis, UniProt F4HRT5 1-1132)
# T1 construct: Little Nuclei 1 (LINC1) of Arabidopsis; also called Little Nuclei 1
# T1 sequence (looked up): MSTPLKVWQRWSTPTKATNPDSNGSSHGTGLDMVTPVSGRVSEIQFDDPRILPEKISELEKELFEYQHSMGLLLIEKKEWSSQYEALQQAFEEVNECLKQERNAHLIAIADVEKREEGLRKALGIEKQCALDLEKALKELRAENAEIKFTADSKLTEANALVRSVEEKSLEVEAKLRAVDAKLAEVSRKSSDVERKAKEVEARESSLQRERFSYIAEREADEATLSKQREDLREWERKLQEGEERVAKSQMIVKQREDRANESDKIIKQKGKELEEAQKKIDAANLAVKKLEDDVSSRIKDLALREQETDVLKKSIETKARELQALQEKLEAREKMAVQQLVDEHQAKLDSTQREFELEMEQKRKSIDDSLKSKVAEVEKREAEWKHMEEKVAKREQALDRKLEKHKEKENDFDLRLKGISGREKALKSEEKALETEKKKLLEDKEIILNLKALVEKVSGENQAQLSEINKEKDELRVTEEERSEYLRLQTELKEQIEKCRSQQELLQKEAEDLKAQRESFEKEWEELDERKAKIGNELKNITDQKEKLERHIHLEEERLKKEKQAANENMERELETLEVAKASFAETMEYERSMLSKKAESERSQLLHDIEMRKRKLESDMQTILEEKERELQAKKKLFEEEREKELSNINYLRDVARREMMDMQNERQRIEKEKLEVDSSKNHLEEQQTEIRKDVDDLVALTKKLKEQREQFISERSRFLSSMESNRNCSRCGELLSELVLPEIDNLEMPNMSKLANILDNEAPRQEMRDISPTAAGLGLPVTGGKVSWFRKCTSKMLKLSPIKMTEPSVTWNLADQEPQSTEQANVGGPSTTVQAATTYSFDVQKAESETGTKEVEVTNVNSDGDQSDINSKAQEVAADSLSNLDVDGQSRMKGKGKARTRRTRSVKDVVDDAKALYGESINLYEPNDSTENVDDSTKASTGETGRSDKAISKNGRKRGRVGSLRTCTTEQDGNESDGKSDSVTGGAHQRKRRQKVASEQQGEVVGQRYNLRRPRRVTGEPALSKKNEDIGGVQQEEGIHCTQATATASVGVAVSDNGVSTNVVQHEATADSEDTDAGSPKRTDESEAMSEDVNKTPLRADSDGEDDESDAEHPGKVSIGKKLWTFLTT
# Biological target: T1, AtLINC1-YFP
# Assay: FRET or BRET; acceptor photobleaching FRET (apFRET) in N. benthamiana leaf cells 3 days after infiltration; CFP donor on the SUN constructs, YFP acceptor on AtLINC1; YFP bleached in a constant ROI; pre-bleach fluorescence as internal negative control; about 35 NE per sample
# Conditions: partners not purified
row,FRET efficiency (EF) [%],Binder
1,1.29,"AtSUN2^1–106-CFP (domain or fragment, Arabidopsis, UniProt Q9SG79 1-106, looked up, N-terminus of AtSUN2 of Arabidopsis: the first 318 bp (106 aa) of the CDS; also called SUN2 N-terminus; AtSUN2 N-terminus; source: Nicotiana benthamiana leaves, transient expression by A. tumefaciens GV3101 infiltration (pK7CWG2), in living cells; not shown: CFP, C-terminal, kept) MSASTVSITASPRTIRRTPVLSGEKKSNFDFPPSESHANAAIGESSAGTNKDLIRAEAAGERSNTYDVGPVTRKSGSTATGTNTTTTQRRTRKSQGNKIDRGKWKT"
2,1.9,"AtSUN2-CFP (natural protein, Arabidopsis, UniProt Q9SG79 1-455, looked up, AtSUN2, Sad1/UNC84 domain protein 2 of Arabidopsis; also called full length AtSUN2; source: Nicotiana benthamiana leaves, transient expression by A. tumefaciens GV3101 infiltration (pK7CWG2), in living cells; not shown: CFP, C-terminal, kept) MSASTVSITASPRTIRRTPVLSGEKKSNFDFPPSESHANAAIGESSAGTNKDLIRAEAAGERSNTYDVGPVTRKSGSTATGTNTTTTQRRTRKSQGNKIDRGKWKTVVRVFAKQFGALLLLVGLIQLIRKLTLKDSSLSSSNFPIETEMVLSELESRISAVDGLVKTTTKMMQVQVEFLDKKMDSESRALRQTIDSTSSVLHSELKKVESKTERLQVSVDELNAKPLVSREELERVYEELKKGKVGDSDVNIDKLRAYARDIVEKEIGKHVADGLGRVDYALASGGAFVMGHSDPFLVGNGRNWFGTSRRRVHSKAVKMLTPSFGEPGQCFPLKGSNGYVLVRLRAPIIPEAVTLEHVSKAVAYDRSSAPKDCRVSGWLGDIDMETETMPLLTEFSYDLDRSNAQTFDIADSAHSGLVNTVRLDFNSNHGSSSHTCIYRFRVHGRELDSVSVAHA"
3,1.85,"AtSUN1-CFP (natural protein, Arabidopsis, UniProt Q9FF75 1-471, looked up, AtSUN1, Sad1/UNC84 domain protein 1 of Arabidopsis; also called full length AtSUN1; source: Nicotiana benthamiana leaves, transient expression by A. tumefaciens GV3101 infiltration (pK7CWG2), in living cells; not shown: CFP, C-terminal, kept) MSASTVSITANTAAATRRTPILAGEKKSNFDYPQSESLANGGVGEAGGTSRDLSRGEATLDRSQGQDLGPVTRRSVSAATGTNTTATQRRTRKVATPKSEKARWKTVVRIFAKQLGALLIIVGLIQLTRKMILKASSPSSPISSYETEMAFSGLESRIAEVDGLVKATTNSMQVQVELLDKKMEREAKVLRQEIERKASAFQSELKKIESRTESLEKSVDEVNAKPWVTKDELERIYEELKKGNVDDSAFSEISIDELRAYARDIMEKEIEKHAADGLGRVDYALASGGAFVMEHSDPYLVGKGSSWFATTMRRAHTNAVKMLSPSFGEPGQCFPLKGSEGYVQIRLRGPIIPEAFTLEHVAKSVAYDRSSAPKDCRVSGSLQGPESSAETENMQLLTEFTYDLDRSNAQTFNILESSSSGLIDTVRLDFTSNHGSDSHTCIYRFRVHGRAPDPVPVVGTNLDQDSSPESE"
